These results are taken from patent US11541126B1, “Anti-ASGR1 antibody TLR8 agonist comprising conjugates and uses thereof” (Silverback Therapeutics, Inc., priority 2020, dated 2023).

B1: G2D-C (antibody, V domains shown)
VH: EVQLQQSGPELVKPGASVKISCKASGYSFTGYYMHWVKQSHVKSLEWIGRINPNNGATNYNQNFKDKASLTVDKSSSTAYMEFHSLTSEDSAVYYCTSVNFYYWGQGTTLTVSS
VL: DIKMTQSPSSMYASLGERVTITCKASQVINSYLSWFQQKPGKSPETLIYRANTLVDGVPSRFSGSGSGQDYSLTISSLEYEDLGIYYCLQYAEFPYTFGGGTKLEIK
modifications: IgG1 kappa constant regions; Synthetic sequence G2D VH; Synthetic sequence G2D VL
B2: hzG2D-16: humanized G2D clone; "G2D VL region ... of clones 1-16, 19-21, 26-29, 31, and 33 ... grafted into the human germline sequence VKI-L1 with JK4" (antibody, V domains shown)
VH: QVQLVQSGAEVKKPGASVKVSCKASGYSFTGYYMHWVRQAPGQRLEWMGRINPNNGATNYNQNFKDKASLTVDTSASTAYMELSSLRSEDTAVYYCTSVNFYYWGQGTTLTVSS
VL: DIQMTQSPSSLSASVGDRVTITCKASQVINSYLSWFQQKPGKAPKSLIYRANTLVDGVPSRFSGSGSGTDFTLTISSLQPEDFATYYCLQYAEFPYTFGGGTKVEIK
modifications: Synthetic sequence hzG2.5D VH T28S, R66K, V67A, T68S, I69L, R71V, A93T, R94S, V109L; Synthetic sequence hzG2D VLa
B3: hzG2D-27: humanized G2D clone; "G2D VL region ... of clones 1-16, 19-21, 26-29, 31, and 33 ... grafted into the human germline sequence VKI-L1 with JK4" (antibody, V domains shown)
VH: QVQLVQSGAEVKKPGASVKVSCKASGYTFTGYYMHWVRQAPGQRLEWMGRINPNNGATNYNQNFKDKASLTVDTSASTAYMELSSLRSEDTAVYYCTSVNFYYWGQGTTVTVSS
VL: DIQMTQSPSSLSASVGDRVTITCKASQVINSYLSWFQQKPGKAPKSLIYRANTLVDGVPSRFSGSGSGTDFTLTISSLEYEDFATYYCLQYAEFPYTFGGGTKVEIK
modifications: Synthetic sequence hzG2.47D VH R66K, V67A, T68S, I69L, R71V, A93T, R94S; Synthetic sequence hzG2.4D VLa Q79E, P80Y
B4: hzG2D-22: humanized G2D clone; "G2D VL region ... of clones 22, 23, 30, 32, and 34-37 ... grafted into the human germline sequence VKI-O2 with JK4" (antibody, V domains shown)
VH: QVQLVQSGAEVKKPGASVKVSCKASGYTFTGYYMHWVRQAPGQRLEWMGRINPNNGATNYNQNFKDKASLTVDTSASTAYMELSSLRSEDTAVYYCARVNFYYWGQGTTVTVSS
VL: DIQMTQSPSSLSASVGDRVTITCKASQVINSYLSWYQQKPGKAPKLLIYRANTLVDGVPSRFSGSGSGTDFTLTISSLQPEDFATYYCLQYAEFPYTFGGGTKVEIK
modifications: Synthetic sequence hzG2.46D VH R66K, V67A, T68S, I69L, R71V; Synthetic sequence hzG2D VLb
B5: hzG2D-23: humanized G2D clone; "G2D VL region ... of clones 22, 23, 30, 32, and 34-37 ... grafted into the human germline sequence VKI-O2 with JK4" (antibody, V domains shown)
VH: QVQLVQSGAEVKKPGASVKVSCKASGYTFTGYYMHWVRQAPGQRLEWMGRINPNNGATNYNQNFKDKASLTVDTSASTAYMELSSLRSEDTAVYYCTSVNFYYWGQGTTVTVSS
VL: DIQMTQSPSSLSASVGDRVTITCKASQVINSYLSWYQQKPGKAPKLLIYRANTLVDGVPSRFSGSGSGTDFTLTISSLQPEDFATYYCLQYAEFPYTFGGGTKVEIK
modifications: Synthetic sequence hzG2.47D VH R66K, V67A, T68S, I69L, R71V, A93T, R94S; Synthetic sequence hzG2D VLb
B6: hzG2D-21: humanized G2D clone; "G2D VL region ... of clones 1-16, 19-21, 26-29, 31, and 33 ... grafted into the human germline sequence VKI-L1 with JK4" (antibody, V domains shown)
VH: QVQLVQSGAEVKKPGASVKVSCKASGYTFTGYYMHWVRQAPGQRLEWMGRINPNNGATNYNQNFKDKASLTVDTSASTAYMELSSLRSEDTAVYYCTSVNFYYWGQGTTVTVSS
VL: DIQMTQSPSSLSASVGDRVTITCKASQVINSYLSWFQQKPGKAPKSLIYRANTLVDGVPSRFSGSGSGTDFTLTISSLQPEDFATYYCLQYAEFPYTFGGGTKVEIK
modifications: Synthetic sequence hzG2.47D VH R66K, V67A, T68S, I69L, R71V, A93T, R94S; Synthetic sequence hzG2D VLa
B7: hzG2D-29: humanized G2D clone; "G2D VL region ... of clones 1-16, 19-21, 26-29, 31, and 33 ... grafted into the human germline sequence VKI-L1 with JK4" (antibody, V domains shown)
VH: QVQLVQSGAEVKKPGASVKVSCKASGYTFTGYYMHWVKQAPGQRLEWMGRINPNNGATNYNQNFKDKASLTVDTSASTAYMELSSLRSEDTAVYYCTSVNFYYWGQGTTVTVSS
VL: DIQMTQSPSSLSASVGDRVTITCKASQVINSYLSWFQQKPGKAPKSLIYRANTLVDGVPSRFSGSGSGTDFTLTISSLQPEDFATYYCLQYAEFPYTFGGGTKVEIK
modifications: Synthetic sequence hzG2.49D VH R38K, R66K, V67A, T68S, I69L, R71V, A93T, R94S; Synthetic sequence hzG2D VLa
B8: hzG2D-25: humanized G2D clone; "G2D VL region ... of clones 24 and 25 ... grafted into the human germline sequence VKI-A20 with JK4 to generate hzG2D VLc (SEQ ID NO:249)" (antibody, V domains shown)
VH: QVQLVQSGAEVKKPGASVKVSCKASGYTFTGYYMHWVRQAPGQRLEWMGRINPNNGATNYNQNFKDKASLTVDTSASTAYMELSSLRSEDTAVYYCTSVNFYYWGQGTTVTVSS
VL: DIQMTQSPSSLSASVGDRVTITCKASQVINSYLSWYQQKPGKVPKLLIYRANTLVDGVPSRFSGSGSGTDFTLTISSLQPEDVATYYCLQYAEFPYTFGGGTKVEIK
modifications: Synthetic sequence hzG2.47D VH R66K, V67A, T68S, I69L, R71V, A93T, R94S; Synthetic sequence hzG2D VLc
B9: hzG2D-28: humanized G2D clone; "G2D VL region ... of clones 1-16, 19-21, 26-29, 31, and 33 ... grafted into the human germline sequence VKI-L1 with JK4" (antibody, V domains shown)
VH: QVQLVQSGAEVKKPGASVKVSCKASGYTFTGYYMHWVRQAPGQRLEWMGRINPNNGATNYNQNFKDKASLTVDTSASTAYMELSSLRSEDTAVYYCTSVNFYYWGQGTTVTVSS
VL: DIQMTQSPSSLSASVGDRVTITCKASQVINSYLSWFQQKPGKAPKSLIYRANTLVDGVPSRFSGSGSGTDYSLTISSLQPEDFATYYCLQYAEFPYTFGGGTKVEIK
modifications: Synthetic sequence hzG2.47D VH R66K, V67A, T68S, I69L, R71V, A93T, R94S; Synthetic sequence hzG2.5D VLa F71Y, T72S
B10: hzG2D-24: humanized G2D clone; "G2D VL region ... of clones 24 and 25 ... grafted into the human germline sequence VKI-A20 with JK4 to generate hzG2D VLc (SEQ ID NO:249)" (antibody, V domains shown)
VH: QVQLVQSGAEVKKPGASVKVSCKASGYTFTGYYMHWVRQAPGQRLEWMGRINPNNGATNYNQNFKDKASLTVDTSASTAYMELSSLRSEDTAVYYCARVNFYYWGQGTTVTVSS
VL: DIQMTQSPSSLSASVGDRVTITCKASQVINSYLSWYQQKPGKVPKLLIYRANTLVDGVPSRFSGSGSGTDFTLTISSLQPEDVATYYCLQYAEFPYTFGGGTKVEIK
modifications: Synthetic sequence hzG2.46D VH R66K, V67A, T68S, I69L, R71V; Synthetic sequence hzG2D VLc
B11: hzG2D-26: humanized G2D clone; "G2D VL region ... of clones 1-16, 19-21, 26-29, 31, and 33 ... grafted into the human germline sequence VKI-L1 with JK4" (antibody, V domains shown)
VH: QVQLVQSGAEVKKPGASVKVSCKASGYTFTGYYMHWVRQAPGQRLEWMGRINPNNGATNYNQNFKDKASLTVDTSASTAYMELSSLRSEDTAVYYCTSVNFYYWGQGTTVTVSS
VL: DIQMTQSPSSLSASVGDRVTITCKASQVINSYLSWFQQKPGKAPETLIYRANTLVDGVPSRFSGSGSGTDFTLTISSLQPEDFATYYCLQYAEFPYTFGGGTKVEIK
modifications: Synthetic sequence hzG2.47D VH R66K, V67A, T68S, I69L, R71V, A93T, R94S; Synthetic sequence hzG2.3D VLa K45E, S46T

The experiment deals with T1, HepG2 cells (which express ASGR1) (Homo sapiens, UniProt P07306).
T1 construct: endogenous in cells; host or cells: HepG2
T1 sequence (P07306 1-291): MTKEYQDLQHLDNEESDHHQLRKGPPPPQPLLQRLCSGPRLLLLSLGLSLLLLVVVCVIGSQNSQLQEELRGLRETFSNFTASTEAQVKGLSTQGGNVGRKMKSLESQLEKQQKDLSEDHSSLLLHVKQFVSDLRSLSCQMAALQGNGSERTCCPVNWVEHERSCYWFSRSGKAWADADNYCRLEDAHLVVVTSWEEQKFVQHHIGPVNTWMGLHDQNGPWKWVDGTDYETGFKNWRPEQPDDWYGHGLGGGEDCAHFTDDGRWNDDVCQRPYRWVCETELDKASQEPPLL
As to the kind of experiment: Guava HepG2 cell binding screen of humanized anti-ASGR1 clones. Set-up: unit not given here. The following applies: humanized G2D clones (Table 5); two numbers per cell, not explained. On the procedure: Hybridomas producing monoclonal antibodies (mAbs) specific for human ASGR1 were prepared from Balb/C mice immunized with ASGR1-AviHis at a service provider using their propriety protocol. Antibody heavy and light chain sequences were obtained, amplified, and cloned. Clone supernatants containing the expressed mAbs were screened for binding to a human ASGR1-IgG1Fc fusion protein, and those with a positive signal as measured by enzyme linked immunosorbent assay (ELISA) were screened for cell binding on HepG2 cells (which express ASGR1).
B1: the “Guava HepG2 Screen” value is recorded as 187/145. For B2, the “Guava HepG2 Screen” value was 165/108. On to B3, for which the “Guava HepG2 Screen” value is on record as 191/116. The entry for B4 is “None”; for B5 it is 198/131. For B6, the “Guava HepG2 Screen” value is 199/127. For B7, the “Guava HepG2 Screen” value was 189/108. The entry for B8 is “None”. The figure for B9 is 145/92; for B10 it is “None”; for B11 it is 185/114.
